Measurements from US20110262445A1 (CEPHALON AUSTRALIA, published 2011).
Changes are numbered by the printed parent chain. In names and notes the source's numbering stands.

T1: human IL-12 (human, UniProt P29460 23-328; P29459 23-219)
T1 construct: Recombinant (Peprotech); FLAG-tagged IL-12 in the flow cytometry assays, biotinylated in the IL-12Rβ2 assay; also called hIL-12
T1 sequence 1: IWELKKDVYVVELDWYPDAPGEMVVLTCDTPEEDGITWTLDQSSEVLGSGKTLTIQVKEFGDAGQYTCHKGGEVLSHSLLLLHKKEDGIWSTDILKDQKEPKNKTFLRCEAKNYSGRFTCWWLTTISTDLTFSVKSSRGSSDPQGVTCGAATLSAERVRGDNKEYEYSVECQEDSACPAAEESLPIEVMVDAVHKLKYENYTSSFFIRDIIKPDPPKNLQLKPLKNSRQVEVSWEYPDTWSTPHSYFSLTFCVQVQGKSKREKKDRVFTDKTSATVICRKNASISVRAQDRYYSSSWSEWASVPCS
T1 sequence 2: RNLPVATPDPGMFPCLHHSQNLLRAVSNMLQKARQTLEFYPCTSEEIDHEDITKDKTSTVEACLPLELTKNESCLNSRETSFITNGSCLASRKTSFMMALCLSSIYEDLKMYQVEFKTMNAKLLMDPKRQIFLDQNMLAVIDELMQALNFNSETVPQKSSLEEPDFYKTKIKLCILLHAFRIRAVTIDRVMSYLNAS

T2: human IL-23 (human, UniProt P29460 23-328; Q9NPF7 20-189)
T2 construct: Recombinant (Ebioscience); HIS-tagged in flow cytometry, biotinylated in some assays; also called hIL-23; rhIL-23
T2 sequence 1: T1 sequence 1
T2 sequence 2: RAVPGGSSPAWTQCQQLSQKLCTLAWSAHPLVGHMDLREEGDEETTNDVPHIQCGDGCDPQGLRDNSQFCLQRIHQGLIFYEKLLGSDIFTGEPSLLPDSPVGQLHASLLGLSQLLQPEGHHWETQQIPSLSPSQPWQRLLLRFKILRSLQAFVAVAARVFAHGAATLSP

B1: Antibody 128 (antibody, human IgG1, kappa)
heavy chain: not shown
light chain: DIQMTQSPSSVSATVGDRVTITCRASQSISINLHWYQQKPGKAPKLLIYFASQSISGVPSRFSGSGSGTDFSLTINSLQPEDFATYYCQQSNSFPLTFGGGTKVEIKRTVAAPSVFIFPPSDEQLKSGTASVVCLLNNFYPREAKVQWKVDNALQSGNSQESVTEQDSKDSTYSLSSTLTLSKADYEKHKVYACEVTHQGLSSPVTKSFNRGEC
B2: scFv AQ-G10 (scFv)
scFv: QVQLVQSGAEVEKPGASVKVSCKASGYTFTDYYLHWVRQAPGQGLEWMGWIDPENGDTEYAPKFQGGVTMTTDTSTSTAYMELRSLRSDDTAVYYCNANKELRYFDVWGQGTMVTVSSGGGGSGGGGSGGGGSEIVMTQSPATLSVSPGERATLSCRASQSISINLHWYQQKPGQAPRLLIYFASQSISGIPARFSGSGSGTEFTLTISSLQSEDFAVYYCQQSNSFPLTFGGGTKVEIKR
notes: scFv-80 variant: VH K12E, R66G; not shown: proprietary C-terminal FLAG tag
B3: scFv CE-B1 (scFv)
scFv: B2 scFv with E12K, F29L, G67R
notes: scFv-80 variant: VH F29L; not shown: proprietary C-terminal FLAG tag
B4: scFv AX-G4 (scFv)
scFv: B2 scFv with E12K, G67R, S159P
notes: scFv-80 variant: VL S26P; not shown: proprietary C-terminal FLAG tag
B5: scFv AU-G9 (scFv)
scFv: B2 scFv with E12K, Q43R, G67R, I188T
notes: scFv-80 variant: VH Q43R; VL I55T; not shown: proprietary C-terminal FLAG tag
B6: scFv CR-B1 (scFv)
scFv: B2 scFv with E12K, G67R, D89E
notes: scFv-80 variant: VH D85E; not shown: proprietary C-terminal FLAG tag
B7: scFv BU-B1 (scFv)
scFv: B2 scFv with E12K, L34M, G67R
notes: scFv-80 variant: VH L34M; not shown: proprietary C-terminal FLAG tag
B8: scFv BB-A9 (scFv)
scFv: B2 scFv with E12K, T28A, G67R, T69S
notes: scFv-80 variant: VH T28A, T68S; not shown: proprietary C-terminal FLAG tag
B9: scFv AV-F11 (scFv)
scFv: B2 scFv with E12K, G67R, S117P, I208T
notes: scFv-80 variant: VH S112P; VL I75T; not shown: proprietary C-terminal FLAG tag
B10: Antibody 124 (antibody, human IgG1, kappa)
heavy chain: not shown
light chain: B1 light chain with T14S, T85R
B11: scFv AY-B2 (scFv)
scFv: B2 scFv with E12K, G67R, M70V
notes: scFv-80 variant: VH M69V; not shown: proprietary C-terminal FLAG tag
B12: scFv AZ-D8 (scFv)
scFv: B2 scFv with E12K, Y27C, G67R
notes: scFv-80 variant: VH Y27C; not shown: proprietary C-terminal FLAG tag
B13: scFv BZ-G10 (scFv)
scFv: B2 scFv with E12K, G67R, Q160R
notes: scFv-80 variant: VL Q27R; not shown: proprietary C-terminal FLAG tag
B14: scFv BV-B2 (scFv)
scFv: B2 scFv with E12K, G67R, D215G
notes: scFv-80 variant: VL D82G; not shown: proprietary C-terminal FLAG tag
B15: scFv AY-G7 (scFv)
scFv: B2 scFv with E12K, G67R, Y219H
notes: scFv-80 variant: VL Y86H; not shown: proprietary C-terminal FLAG tag
B16: scFv CL-G7 (scFv)
scFv: B2 scFv with E10Q, E12K, G67R
notes: scFv-80 variant: VH E10Q; not shown: proprietary C-terminal FLAG tag
B17: scFv BY-B4 (scFv)
scFv: B2 scFv with E12K, T28A, G67R
notes: scFv-80 variant: VH T28A; not shown: proprietary C-terminal FLAG tag
B18: scFv CW-H1 (scFv)
scFv: B2 scFv with E12K, G67R, S185R
notes: scFv-80 variant: VL S52R; not shown: proprietary C-terminal FLAG tag
B19: scFv CE-A6 (scFv)
scFv: B2 scFv with E12K, G67R, G197S
notes: scFv-80 variant: VL G64S; not shown: proprietary C-terminal FLAG tag
B20: scFv CW-H7 (scFv)
scFv: B2 scFv with E12K, G67R, V146M
notes: scFv-80 variant: VL V13M; not shown: proprietary C-terminal FLAG tag
B21: scFv combo. # 14 (scFv)
scFv: B2 scFv with E12K, F29L, Q43R, G67R, I188T
notes: scFv-80 with VH F29L, Q43R; VL I55T; not shown: proprietary C-terminal FLAG tag
B22: scFv combo. # 13 (scFv)
scFv: B2 scFv with E12K, T28A, Q43R, G67R, I188T
notes: scFv-80 with VH T28A, Q43R; VL I55T; not shown: proprietary C-terminal FLAG tag

These binders were tested against T1, human IL-12 (assay: ELISA, coated IL-12).
Method in brief: (§1)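 Each value is an absorbance measuring binding. Plates (Maxisorp) carried cytokine coated at 1 μg/mL in carbonate buffer pH 9.6 overnight at 4° C, were blocked with 1% BSA in PBS for 1 hour at 25° C, and received antibody titrations for 1 hour at 25° C. Detection used goat anti-human IgG or anti-murine immunoglobulin HRP at 1:2000 for 1 hour, then TMB stopped with 1M HCl, with absorbance taken at 450 nm (reference 620 nm).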

Row | binding result | Binder
1 | binds | B1

The binders below were run against T2, human IL-23 (assay: SPR, purified scFv captured via FLAG).
Procedure: (§2) A number of the scFv variants presented in TABLE 4 were selected for full characterization of binding kinetics, encompassing a broad range of mutation profiles and binding affinities. Large-scale protein expressions were carried out for each scFv. The expressed scFvs were purified as monomeric proteins and tested for binding against IL-12 and IL-23 by SPR (TABLE 5).
(§3) Purified scFvs were subjected to full kinetic characterization using a BIAcore T100 biosensor (GE Healthcare). Approximately 10,000 RU of the proprietry FLAG-specific capture molecule was immobilized on a CM5 Series S Sensor chip, using standard amine coupling chemistry in flow cells (FC) 1 and FC2 (or alternatively FC3 and FC4) of the BIAcore T100 Biosensor. The running buffer used was HBS-EP+ (BIAcore) and interactions measured at 30° C. or 35° C. to promote differentiation of scFvs with very similiar kd values. Peak purified FLAG-tagged scFvs (prepared as described in the previous paragraph) were diluted to 10 nM in running buffer, and captured on FC2 at a flow rate of 10 μl/min in order to capture 50 RU of scFv (typically 60 sec was sufficient to capture this level of tagged scFv). After an appropriate stabilization period, the target, IL-12 or IL-23, were passed over FC1 and FC2 at a flow rate of 60 μl/min at concentrations ranging from 81 nM to 0.13 nM (using a five-fold dilution of IL-12) and 81 nM to 1 nM (using a three-fold dilution of IL-23). The contact time for association was 180 sec and dissociation measured for 10 mins for the highest concentration and 300 sec for all other concentrations in the series. The sensorgram data from FC2 was subtracted from FC1 and a buffer only control. The curves were fitted using a 1:1 Langmuir equation to generate the kₐ, kd and KD values.

Row | Kd [nM] | koff [s⁻¹] | kon [M⁻¹ s⁻¹] | Binder
2 | 0.17 | 4.9e-05 | 280000 | B2
3 | 0.098 | 3e-05 | 310000 | B3
4 | 0.15 | 5.5e-05 | 360000 | B4
5 | 0.13 | 4.4e-05 | 340000 | B5
6 | 0.13 | 4.1e-05 | 320000 | B6
7 | 0.12 | 3.7e-05 | 300000 | B7
8 | 0.16 | 4.4e-05 | 310000 | B8
9 | 0.093 | 2.5e-05 | 270000 | B9

Each binder was assayed against T1, human IL-12 (assay: SPR, purified scFv captured via FLAG).
Procedure: as §2, §3

Row | Kd [nM] | koff [s⁻¹] | kon [M⁻¹ s⁻¹] | Binder
10 | 0.35 | 0.00052 | 1.5e+06 | B2
11 | 0.089 | 0.00018 | 2e+06 | B3
12 | 0.14 | 0.00031 | 2.3e+06 | B4
13 | 0.11 | 0.00024 | 2.1e+06 | B5
14 | 0.23 | 0.00044 | 1.9e+06 | B6
15 | 0.12 | 0.00024 | 2e+06 | B7
16 | 0.12 | 0.00023 | 2e+06 | B8
17 | 0.2 | 0.00033 | 1.6e+06 | B9

Target: T1, human IL-12
Experiment: ELISA, coated IL-12
Remark: another data set of the same source
Method in brief: as §1

Row | binding result | Binder
18 | binds | B10

The binders below were run against T2, human IL-23 (assay: SPR screen, crude scFv captured via FLAG).
Procedure: Approximately 6500 individual scFvs recovered from the ribosome display reactions were expressed and screened for binding against IL-23 using a high-throughout SPR assay. The variants were ranked according to the kd and the best variants were sequenced at the nucleic acid level.
High-throughput SPR screening was conducted using a BIAcore A100 biosensor (GE Healthcare). Approximately 10 000 RU of the proprietary FLAG-specific capture molecule was immobilized on a CM5 Series S Sensor chip, using standard amine coupling chemistry on Spots 1 & 5 (outer spots) and 3,000RU to Spots 2 & 4 (inner spots) in each of the four flow cells of the BIAcore A100 Biosensor. The running buffer used was HBS-EP+ (BIAcore) and all interactions measured at 25° C. Crude periplasmic preparations of FLAG-tagged scFvs (prepared as described in the previous paragraph), were diluted two-fold in running buffer before capturing at a flow rate of 5u1/min for 60 sec. Approx. 100RU (on outer spots) and 50RU (on inner spots) of tagged scFv was captured. Following a 2 min stabilization period, IL-23 was passed over all spots of all four flow cells simultaneously at a flow rate of 30u1/min for 120 sec and dissociation monitored for 200 sec. Generated sensorgrams were referenced against the unmodified spot 3 of each flow cell, and fitted using a 1:1 Langmuir equation with R1 set to local to account for varying ligand densities to generate the kₐ, kd and KD values.

Row | koff [s⁻¹] | Binder
19 | 0.00029 | B2
20 | 0.0001 | B11
21 | 0.00028 | B3
22 | 0.00036 | B4
23 | 0.00031 | B5
24 | 4.3e-05 | B12
25 | 0.00036 | B13
26 | 0.00029 | B14
27 | 0.00012 | B15
28 | 0.00012 | B16
29 | 0.00026 | B6
30 | 0.00029 | B7
31 | 0.00045 | B8
32 | 0.00033 | B17
33 | 0.00016 | B18
34 | 0.00033 | B19
35 | 0.000278 | B20
36 | 0.00028 | B9

What follows are binders tested against T2, human IL-23 (assay: SPR, single 81 nM analyte, scFv via FLAG).

Row | Kd [nM] | koff [s⁻¹] | kon [M⁻¹ s⁻¹] | Binder
37 | 0.079 | 2.1e-05 | 270000 | B21
38 | 0.051 | 1.3e-05 | 250000 | B22

Each binder was assayed against T2, human IL-23 (assay: ELISA, coated IL-23).
Method in brief: as §1

Row | binding result | Binder
39 | binds | B10

Target: T2, human IL-23
Experiment: ELISA, coated IL-23
Remark: another data set of the same source
Method in brief: as §1

Row | binding result | Binder
40 | binds | B1
